{"source": "patent US20100285597", "proteins": {"B1": {"name": "BACE1 (protein)", "chain": "ETDEEPEEPGRRGSFVEMVDNLRGKSGQGYYVEMTVGSPPQTLNILVDTGSSNFAVGAAPHPFLHRYYQRQLSSTYRDLRKGVYVPYTQGKWEGELGTDLVSIPHGPNVTVRANIAAITESDKFFINGSNWEGILGLAYAEIARPDDSLEPFFDSLVKQTHVPNLFSLQLCGAGFPLNQSEVLASVGGSMIIGGIDHSLYTGSLWYTPIRREWYYEVIIVRVEINGQDLKMDCKEYNYDKSIVDSGTTNLRLPKKVFEAAVKSIKAASSTEKFPDGFWLGEQLVCWQAGTTPWNIFPVISLYLMGEVTNQSFRITILPQQYLRPVEDVATSQDDCYKFAISQSSTGTVMGAVIMEGFYVVFDRARKRIGFAVSACHVHDEFRTAAVEGPFVTLDMEDCGYNIPQTDESTLMTIAYVMAAICALFMLPLCLMVCQWRCLRCLRQQHDDFADDISLLK"}}, "key": {"[1]": {"molecular_target": "T1, T310A point mutant of nectin-1", "T1 chain": "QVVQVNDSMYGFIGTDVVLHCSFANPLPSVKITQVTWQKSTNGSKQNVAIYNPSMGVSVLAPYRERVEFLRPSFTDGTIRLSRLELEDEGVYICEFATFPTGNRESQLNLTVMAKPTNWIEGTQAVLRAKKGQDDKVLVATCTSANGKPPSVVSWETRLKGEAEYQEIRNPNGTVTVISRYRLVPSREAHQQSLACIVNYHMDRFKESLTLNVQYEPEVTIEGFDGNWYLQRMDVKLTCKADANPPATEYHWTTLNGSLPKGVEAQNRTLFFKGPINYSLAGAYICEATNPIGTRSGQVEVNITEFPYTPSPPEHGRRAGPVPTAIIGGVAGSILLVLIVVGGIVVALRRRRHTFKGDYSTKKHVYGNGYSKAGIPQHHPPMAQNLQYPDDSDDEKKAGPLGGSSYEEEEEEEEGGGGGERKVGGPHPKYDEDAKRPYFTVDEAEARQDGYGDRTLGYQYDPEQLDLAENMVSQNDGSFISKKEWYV"}, "[2]": {"molecular_target": "T2, S323A point mutant of nectin-1", "T2 chain": "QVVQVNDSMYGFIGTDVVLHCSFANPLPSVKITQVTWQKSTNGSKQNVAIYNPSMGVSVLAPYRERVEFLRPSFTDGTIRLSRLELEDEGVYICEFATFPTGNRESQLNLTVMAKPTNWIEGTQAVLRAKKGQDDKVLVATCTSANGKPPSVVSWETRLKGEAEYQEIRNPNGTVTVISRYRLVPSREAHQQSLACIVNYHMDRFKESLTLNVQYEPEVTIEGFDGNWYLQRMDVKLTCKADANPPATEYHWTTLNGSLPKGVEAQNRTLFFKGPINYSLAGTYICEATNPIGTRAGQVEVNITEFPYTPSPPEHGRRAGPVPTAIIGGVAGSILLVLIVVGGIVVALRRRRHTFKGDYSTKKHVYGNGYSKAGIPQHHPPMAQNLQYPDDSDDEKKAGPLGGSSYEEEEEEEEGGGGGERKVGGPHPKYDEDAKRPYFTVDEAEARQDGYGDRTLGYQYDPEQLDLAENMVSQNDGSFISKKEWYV"}, "[3]": {"molecular_target": "T3, Y311A point mutant of nectin-1", "T3 chain": "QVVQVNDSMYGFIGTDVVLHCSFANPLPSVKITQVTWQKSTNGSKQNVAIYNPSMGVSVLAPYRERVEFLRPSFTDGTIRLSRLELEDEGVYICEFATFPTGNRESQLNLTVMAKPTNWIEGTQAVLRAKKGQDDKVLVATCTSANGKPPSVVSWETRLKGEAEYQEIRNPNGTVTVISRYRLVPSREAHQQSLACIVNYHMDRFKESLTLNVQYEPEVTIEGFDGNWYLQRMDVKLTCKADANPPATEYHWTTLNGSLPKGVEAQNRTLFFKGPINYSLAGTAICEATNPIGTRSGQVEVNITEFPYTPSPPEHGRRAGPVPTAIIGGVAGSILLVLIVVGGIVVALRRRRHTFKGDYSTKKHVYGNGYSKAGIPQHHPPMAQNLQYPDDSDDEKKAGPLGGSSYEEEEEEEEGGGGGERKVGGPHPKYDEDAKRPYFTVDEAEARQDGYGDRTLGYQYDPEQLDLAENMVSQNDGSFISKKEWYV"}}, "data": [{"protein": "B1", "values": [{"measurement": "production of CTF bands (Western blot of HEK 293 lysates)", "setting": "[1]", "result": "somewhat less effectively increased production in the other two mutants, T310A and Y311A"}, {"measurement": "production of CTF bands (Western blot of HEK 293 lysates)", "setting": "[2]", "result": "Co-expression with BACE1 substantially increased production of CTF bands for the nectin-1 polypeptide mutant S323A"}, {"measurement": "production of CTF bands (Western blot of HEK 293 lysates)", "setting": "[3]", "result": "somewhat less effectively increased production in the other two mutants, T310A and Y311A"}]}]}
